This is an account of results in patent US20260001928A1 (CORTERIA PHARMACEUTICALS, priority 2022, published 2026).

*1 amine or outer side, *2 acyl side, *3 side chain or, on linkers, in order; H or OH if unused. Where no end group is shown, it is not given here. Side-chain parts run from the residue outwards. [ ]: non-standard residue; d: D form. The star is where a group is joined. γGlu = O=C(O)[C@H](CCC(=O)[*:2])N[*:1]; C14 diacid = O=C(O)CCCCCCCCCCCCC(=O)*; C12 diacid = O=C(O)CCCCCCCCCCC(=O)*; NMeI = CC[C@H](C)[C@H](NC)C(=O)O; Pentanoyl = CCCCC(=O)*; AEEA = NCCOCCOCC(=O)O; Aib = CC(C)(N)C(=O)O

The target of one test is T1, CRF1R receptor (UniProt P34998 24-415, limits assumed).
T1 sequence (looked up): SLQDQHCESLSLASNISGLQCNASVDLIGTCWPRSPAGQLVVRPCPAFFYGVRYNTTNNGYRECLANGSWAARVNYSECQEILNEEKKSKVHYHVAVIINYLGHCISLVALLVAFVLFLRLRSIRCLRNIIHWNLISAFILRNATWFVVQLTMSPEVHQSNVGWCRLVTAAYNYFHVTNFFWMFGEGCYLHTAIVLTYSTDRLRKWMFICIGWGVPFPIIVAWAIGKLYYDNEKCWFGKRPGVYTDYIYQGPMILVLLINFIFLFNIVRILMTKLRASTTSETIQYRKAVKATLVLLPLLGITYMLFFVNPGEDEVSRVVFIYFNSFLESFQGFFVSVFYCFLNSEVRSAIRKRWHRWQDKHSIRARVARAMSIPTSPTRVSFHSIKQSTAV
The test is described as follows: cell-based or functional assay.

Test [1] deals with human corticotropin-releasing factor 2a (CRF2a receptor) (human), Q13324. The test is described as follows: cell-based or functional assay.
Chain of human corticotropin-releasing factor 2a (CRF2a receptor) (human), Q13324 (Q13324 20-411): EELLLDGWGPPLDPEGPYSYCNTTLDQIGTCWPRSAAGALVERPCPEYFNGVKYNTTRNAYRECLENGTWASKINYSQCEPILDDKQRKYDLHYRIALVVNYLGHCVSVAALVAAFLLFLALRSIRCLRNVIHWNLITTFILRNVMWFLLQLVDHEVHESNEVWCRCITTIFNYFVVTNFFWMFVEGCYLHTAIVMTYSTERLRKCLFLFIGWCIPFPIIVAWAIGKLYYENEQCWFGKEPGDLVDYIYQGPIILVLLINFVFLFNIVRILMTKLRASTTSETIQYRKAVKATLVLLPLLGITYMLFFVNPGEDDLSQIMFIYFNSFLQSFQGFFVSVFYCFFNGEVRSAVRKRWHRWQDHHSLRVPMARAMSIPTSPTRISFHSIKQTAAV

B1: SEQ ID NO 182 (peptide)
peptide: Ac-IVLSLD[dV]PIKLK([γGlu-C12 diacid])KILLEQEKQKKQREQAETN[Aib]QILAQV-NH2
SMILES: CC[C@H](C)[C@H](NC(C)=O)C(=O)N[C@H](C(=O)N[C@@H](CC(C)C)C(=O)N[C@@H](CO)C(=O)N[C@@H](CC(C)C)C(=O)N[C@@H](CC(=O)O)C(=O)N[C@@H](C(=O)N1CCC[C@H]1C(=O)N[C@H](C(=O)N[C@@H](CCCCN)C(=O)N[C@@H](CC(C)C)C(=O)N[C@@H](CCCCNC(=O)CC[C@H](NC(=O)CCCCCCCCCCC(=O)O)C(=O)O)C(=O)N[C@@H](CCCCN)C(=O)N[C@H](C(=O)N[C@@H](CC(C)C)C(=O)N[C@@H](CC(C)C)C(=O)N[C@@H](CCC(=O)O)C(=O)N[C@@H](CCC(N)=O)C(=O)N[C@@H](CCC(=O)O)C(=O)N[C@@H](CCCCN)C(=O)N[C@@H](CCC(N)=O)C(=O)N[C@@H](CCCCN)C(=O)N[C@@H](CCCCN)C(=O)N[C@@H](CCC(N)=O)C(=O)N[C@@H](CCCNC(=N)N)C(=O)N[C@@H](CCC(=O)O)C(=O)N[C@@H](CCC(N)=O)C(=O)N[C@@H](C)C(=O)N[C@@H](CCC(=O)O)C(=O)N[C@H](C(=O)N[C@@H](CC(N)=O)C(=O)NC(C)(C)C(=O)N[C@@H](CCC(N)=O)C(=O)N[C@H](C(=O)N[C@@H](CC(C)C)C(=O)N[C@@H](C)C(=O)N[C@@H](CCC(N)=O)C(=O)N[C@H](C(N)=O)C(C)C)[C@@H](C)CC)[C@@H](C)O)[C@@H](C)CC)[C@@H](C)CC)C(C)C)C(C)C
Turning to B1, the “Emax (% I)” value in the test with CRF1R receptor worked out at 1%. This molecule also had an EC50 [nM] (cAMP) in test [1] of 1.88 nM.

B2: SEQ ID NO 180 (peptide)
peptide: Pentanoyl-VLSLD[dV]PIKLK([AEEA-AEEA-γGlu-C14 diacid])KILLEQEKQKKQREQAETN[Aib]QILAQV-NH2
SMILES: CCCCC(=O)N[C@H](C(=O)N[C@@H](CC(C)C)C(=O)N[C@@H](CO)C(=O)N[C@@H](CC(C)C)C(=O)N[C@@H](CC(=O)O)C(=O)N[C@@H](C(=O)N1CCC[C@H]1C(=O)N[C@H](C(=O)N[C@@H](CCCCN)C(=O)N[C@@H](CC(C)C)C(=O)N[C@@H](CCCCNC(=O)COCCOCCNC(=O)COCCOCCNC(=O)CC[C@H](NC(=O)CCCCCCCCCCCCC(=O)O)C(=O)O)C(=O)N[C@@H](CCCCN)C(=O)N[C@H](C(=O)N[C@@H](CC(C)C)C(=O)N[C@@H](CC(C)C)C(=O)N[C@@H](CCC(=O)O)C(=O)N[C@@H](CCC(N)=O)C(=O)N[C@@H](CCC(=O)O)C(=O)N[C@@H](CCCCN)C(=O)N[C@@H](CCC(N)=O)C(=O)N[C@@H](CCCCN)C(=O)N[C@@H](CCCCN)C(=O)N[C@@H](CCC(N)=O)C(=O)N[C@@H](CCCNC(=N)N)C(=O)N[C@@H](CCC(=O)O)C(=O)N[C@@H](CCC(N)=O)C(=O)N[C@@H](C)C(=O)N[C@@H](CCC(=O)O)C(=O)N[C@H](C(=O)N[C@@H](CC(N)=O)C(=O)NC(C)(C)C(=O)N[C@@H](CCC(N)=O)C(=O)N[C@H](C(=O)N[C@@H](CC(C)C)C(=O)N[C@@H](C)C(=O)N[C@@H](CCC(N)=O)C(=O)N[C@H](C(N)=O)C(C)C)[C@@H](C)CC)[C@@H](C)O)[C@@H](C)CC)[C@@H](C)CC)C(C)C)C(C)C
B2: in the test with CRF1R receptor, the “Emax (% I)” value amounted to 2%. This molecule also returned an EC50 [nM] (cAMP) in test [1] of 10.7 nM.

B3: SEQ ID NO 177 (peptide)
peptide: [NMeI]VLSLD[dV]PIKLK([γGlu-C14 diacid])KILLEQEKQK[Aib]QREQAETN[Aib]QILAQV-NH2
modifications: N-terminus assumed
SMILES: CC[C@H](C)[C@H](NC)C(=O)N[C@H](C(=O)N[C@@H](CC(C)C)C(=O)N[C@@H](CO)C(=O)N[C@@H](CC(C)C)C(=O)N[C@@H](CC(=O)O)C(=O)N[C@@H](C(=O)N1CCC[C@H]1C(=O)N[C@H](C(=O)N[C@@H](CCCCN)C(=O)N[C@@H](CC(C)C)C(=O)N[C@@H](CCCCNC(=O)CC[C@H](NC(=O)CCCCCCCCCCCCC(=O)O)C(=O)O)C(=O)N[C@@H](CCCCN)C(=O)N[C@H](C(=O)N[C@@H](CC(C)C)C(=O)N[C@@H](CC(C)C)C(=O)N[C@@H](CCC(=O)O)C(=O)N[C@@H](CCC(N)=O)C(=O)N[C@@H](CCC(=O)O)C(=O)N[C@@H](CCCCN)C(=O)N[C@@H](CCC(N)=O)C(=O)N[C@@H](CCCCN)C(=O)NC(C)(C)C(=O)N[C@@H](CCC(N)=O)C(=O)N[C@@H](CCCNC(=N)N)C(=O)N[C@@H](CCC(=O)O)C(=O)N[C@@H](CCC(N)=O)C(=O)N[C@@H](C)C(=O)N[C@@H](CCC(=O)O)C(=O)N[C@H](C(=O)N[C@@H](CC(N)=O)C(=O)NC(C)(C)C(=O)N[C@@H](CCC(N)=O)C(=O)N[C@H](C(=O)N[C@@H](CC(C)C)C(=O)N[C@@H](C)C(=O)N[C@@H](CCC(N)=O)C(=O)N[C@H](C(N)=O)C(C)C)[C@@H](C)CC)[C@@H](C)O)[C@@H](C)CC)[C@@H](C)CC)C(C)C)C(C)C
Take B3: in the test with CRF1R receptor, the “Emax (% I)” value was found to be 10%. Further, the EC50 [nM] (cAMP) in test [1] stood at 0.86 nM.

B4: SEQ ID NO 179 (peptide)
peptide: [NMeI]VLSLD[dV]PIKLK([AEEA-AEEA-γGlu-γGlu-C14 diacid])KILLEQEKQKKQREQAETN[Aib]QILAQV-NH2
modifications: N-terminus assumed
SMILES: CC[C@H](C)[C@H](NC)C(=O)N[C@H](C(=O)N[C@@H](CC(C)C)C(=O)N[C@@H](CO)C(=O)N[C@@H](CC(C)C)C(=O)N[C@@H](CC(=O)O)C(=O)N[C@@H](C(=O)N1CCC[C@H]1C(=O)N[C@H](C(=O)N[C@@H](CCCCN)C(=O)N[C@@H](CC(C)C)C(=O)N[C@@H](CCCCNC(=O)COCCOCCNC(=O)COCCOCCNC(=O)CC[C@H](NC(=O)CC[C@H](NC(=O)CCCCCCCCCCCCC(=O)O)C(=O)O)C(=O)O)C(=O)N[C@@H](CCCCN)C(=O)N[C@H](C(=O)N[C@@H](CC(C)C)C(=O)N[C@@H](CC(C)C)C(=O)N[C@@H](CCC(=O)O)C(=O)N[C@@H](CCC(N)=O)C(=O)N[C@@H](CCC(=O)O)C(=O)N[C@@H](CCCCN)C(=O)N[C@@H](CCC(N)=O)C(=O)N[C@@H](CCCCN)C(=O)N[C@@H](CCCCN)C(=O)N[C@@H](CCC(N)=O)C(=O)N[C@@H](CCCNC(=N)N)C(=O)N[C@@H](CCC(=O)O)C(=O)N[C@@H](CCC(N)=O)C(=O)N[C@@H](C)C(=O)N[C@@H](CCC(=O)O)C(=O)N[C@H](C(=O)N[C@@H](CC(N)=O)C(=O)NC(C)(C)C(=O)N[C@@H](CCC(N)=O)C(=O)N[C@H](C(=O)N[C@@H](CC(C)C)C(=O)N[C@@H](C)C(=O)N[C@@H](CCC(N)=O)C(=O)N[C@H](C(N)=O)C(C)C)[C@@H](C)CC)[C@@H](C)O)[C@@H](C)CC)[C@@H](C)CC)C(C)C)C(C)C
For the molecule B4, the “Emax (% I)” value in the test with CRF1R receptor was -4%. Moreover, the EC50 [nM] (cAMP) in test [1] is 15.6 nM.

B5: SEQ ID NO 181 (peptide)
peptide: Pentanoyl-VLSLD[dV]PIKLK([AEEA-AEEA-γGlu-γGlu-C14 diacid])KILLEQEKQKKQREQAETN[Aib]QILAQV-NH2
SMILES: CCCCC(=O)N[C@H](C(=O)N[C@@H](CC(C)C)C(=O)N[C@@H](CO)C(=O)N[C@@H](CC(C)C)C(=O)N[C@@H](CC(=O)O)C(=O)N[C@@H](C(=O)N1CCC[C@H]1C(=O)N[C@H](C(=O)N[C@@H](CCCCN)C(=O)N[C@@H](CC(C)C)C(=O)N[C@@H](CCCCNC(=O)COCCOCCNC(=O)COCCOCCNC(=O)CC[C@H](NC(=O)CC[C@H](NC(=O)CCCCCCCCCCCCC(=O)O)C(=O)O)C(=O)O)C(=O)N[C@@H](CCCCN)C(=O)N[C@H](C(=O)N[C@@H](CC(C)C)C(=O)N[C@@H](CC(C)C)C(=O)N[C@@H](CCC(=O)O)C(=O)N[C@@H](CCC(N)=O)C(=O)N[C@@H](CCC(=O)O)C(=O)N[C@@H](CCCCN)C(=O)N[C@@H](CCC(N)=O)C(=O)N[C@@H](CCCCN)C(=O)N[C@@H](CCCCN)C(=O)N[C@@H](CCC(N)=O)C(=O)N[C@@H](CCCNC(=N)N)C(=O)N[C@@H](CCC(=O)O)C(=O)N[C@@H](CCC(N)=O)C(=O)N[C@@H](C)C(=O)N[C@@H](CCC(=O)O)C(=O)N[C@H](C(=O)N[C@@H](CC(N)=O)C(=O)NC(C)(C)C(=O)N[C@@H](CCC(N)=O)C(=O)N[C@H](C(=O)N[C@@H](CC(C)C)C(=O)N[C@@H](C)C(=O)N[C@@H](CCC(N)=O)C(=O)N[C@H](C(N)=O)C(C)C)[C@@H](C)CC)[C@@H](C)O)[C@@H](C)CC)[C@@H](C)CC)C(C)C)C(C)C
Turning to B5, the “Emax (% I)” value with CRF1R receptor was found to be 9%. This molecule also showed an EC50 [nM] (cAMP) in test [1] of 24.7 nM.

B6: SEQ ID NO 178 (peptide)
peptide: [NMeI]VLSLD[dV]PIKLK([AEEA-AEEA-γGlu-C14 diacid])KILLEQEKQKKQREQAETN[Aib]QILAQV-NH2
modifications: N-terminus assumed
SMILES: CC[C@H](C)[C@H](NC)C(=O)N[C@H](C(=O)N[C@@H](CC(C)C)C(=O)N[C@@H](CO)C(=O)N[C@@H](CC(C)C)C(=O)N[C@@H](CC(=O)O)C(=O)N[C@@H](C(=O)N1CCC[C@H]1C(=O)N[C@H](C(=O)N[C@@H](CCCCN)C(=O)N[C@@H](CC(C)C)C(=O)N[C@@H](CCCCNC(=O)COCCOCCNC(=O)COCCOCCNC(=O)CC[C@H](NC(=O)CCCCCCCCCCCCC(=O)O)C(=O)O)C(=O)N[C@@H](CCCCN)C(=O)N[C@H](C(=O)N[C@@H](CC(C)C)C(=O)N[C@@H](CC(C)C)C(=O)N[C@@H](CCC(=O)O)C(=O)N[C@@H](CCC(N)=O)C(=O)N[C@@H](CCC(=O)O)C(=O)N[C@@H](CCCCN)C(=O)N[C@@H](CCC(N)=O)C(=O)N[C@@H](CCCCN)C(=O)N[C@@H](CCCCN)C(=O)N[C@@H](CCC(N)=O)C(=O)N[C@@H](CCCNC(=N)N)C(=O)N[C@@H](CCC(=O)O)C(=O)N[C@@H](CCC(N)=O)C(=O)N[C@@H](C)C(=O)N[C@@H](CCC(=O)O)C(=O)N[C@H](C(=O)N[C@@H](CC(N)=O)C(=O)NC(C)(C)C(=O)N[C@@H](CCC(N)=O)C(=O)N[C@H](C(=O)N[C@@H](CC(C)C)C(=O)N[C@@H](C)C(=O)N[C@@H](CCC(N)=O)C(=O)N[C@H](C(N)=O)C(C)C)[C@@H](C)CC)[C@@H](C)O)[C@@H](C)CC)[C@@H](C)CC)C(C)C)C(C)C
For the molecule B6, the “Emax (% I)” value with CRF1R receptor was found to be 1%. In test [1], this molecule registered an EC50 [nM] (cAMP) of 6.5 nM.
